Paper PMC9712992

Biological target: D76N-β2-microglobulin (UniProt P61769)
Chain of UniProt P61769 (P61769 other isoform, or with tags, fused parts or gaps D76N | D76N): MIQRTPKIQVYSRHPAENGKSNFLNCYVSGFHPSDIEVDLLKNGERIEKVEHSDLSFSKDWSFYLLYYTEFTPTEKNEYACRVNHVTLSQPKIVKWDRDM

ThT fluorescence kinetics of seeded fibril growth of 20 μM D76N-β2m with 3% or 10% (w/w) fibril seeds and 10% (w/w) XL-Ds: fold increase in T (half): 1.6 fold
Substance: crosslinked dimers (XL-Ds) of D76N-β2m/S57C (from UniProt P61769 21-119) (complex)
